Results published in patent US7824885B2, “Engineered proteases for affinity purification and processing of fusion proteins” (University of Maryland, College Park, priority 2003, dated 2010).

Target: S160 (Bacillus amyloliquefaciens, UniProt P00782, DEL180-188/E263S/G190A/G235S/G273S/G276A/I138L/K150N/M157F/N319G/N325S/Q313C/Q378E/S116A/S295P/T361A/Y211A/Y324L)
Experiment: inhibition of S160 by prodomain pR58
Type: biochemical

S160, sequence (P00782 other isoform, or with tags, fused parts or gaps with the stated changes): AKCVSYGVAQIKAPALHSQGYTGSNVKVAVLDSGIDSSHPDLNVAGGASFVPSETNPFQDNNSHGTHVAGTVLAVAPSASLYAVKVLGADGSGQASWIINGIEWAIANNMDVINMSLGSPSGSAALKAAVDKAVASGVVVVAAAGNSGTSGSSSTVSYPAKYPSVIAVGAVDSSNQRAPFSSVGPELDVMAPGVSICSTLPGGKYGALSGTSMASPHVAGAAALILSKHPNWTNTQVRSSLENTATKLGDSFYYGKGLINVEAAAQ

B1: pR58: version of pR8 with its last four amino acids (AHAY) replaced with FRAM (protein)
chain: AGKSNGEKKYIVGFKSGIKSCAKKQDVISEKGGKLQKCFKYVDAASATLNEKAVKELKKDPSVAYVEEDKVFRAM
modifications: pR58 (pR8FRAM) variant of SEQ ID NO 2
notes: version of pR8 with its last four amino acids (AHAY) replaced with FRAM
Ki: ~0.03 nM
